Where a chain is given by its changes, count along the chain named.
B1: CE115HA000/GLS3000 Q90P (antibody, IgG1, name in Kabat numbering, V domains shown)
VH: QVQLVESGGGVVQPGRSLRLSCAASGFTFSNAWMHWVRQAPGKGLEWVAQIKAKSNNYATYYAESVKGRFTISRDDSKNSLYLQMNSLKTEDTAVYYCRYVHYGAYYGVDAWGQGTTVTVSS
VL: DIVMTQSPLSLPVTPGEPASISCRSSQSLVHSNRNTYLHWYQQKPGQAPRLLIYKVSNRFSGVPDRFSGSGSGTDFTLKISRVEAEDVGVYYCGPGTQVPYTFGQGTKLEIK
notes: one-arm IgG1
B2: CE115HA000/GLS3000 R24T (antibody, IgG1, name in Kabat numbering, V domains shown)
VH: B1 VH
VL: B1 VL with R24T, P95Q
notes: one-arm IgG1
B3: CE115HA000/GLS3000 R54E (antibody, IgG1, name in Kabat numbering, V domains shown)
VH: B1 VH
VL: B1 VL with R59E, P95Q
notes: one-arm IgG1
B4: CE115HA000/GLS3000 R29Y (antibody, IgG1, name in Kabat numbering, V domains shown)
VH: B1 VH
VL: B1 VL with R34Y, P95Q
notes: one-arm IgG1
B5: CE115HA000/GLS3000 R54Q (antibody, IgG1, name in Kabat numbering, V domains shown)
VH: B1 VH
VL: B1 VL with R59Q, P95Q
notes: one-arm IgG1
B6: CE115HA000/GLS3000 Q93D (antibody, IgG1, name in Kabat numbering, V domains shown)
VH: B1 VH
VL: B1 VL with P95Q, Q98D
notes: one-arm IgG1
B7: CE115HA000/GLS3000 S25D (antibody, IgG1, name in Kabat numbering, V domains shown)
VH: B1 VH
VL: B1 VL with S25D, P95Q
notes: one-arm IgG1
B8: CE115HA000/GLS3000 Q93A (antibody, IgG1, name in Kabat numbering, V domains shown)
VH: B1 VH
VL: B1 VL with P95Q, Q98A
notes: one-arm IgG1
B9: CE115HA000/GLS3000 R24G (antibody, IgG1, name in Kabat numbering, V domains shown)
VH: B1 VH
VL: B1 VL with R24G, P95Q
notes: one-arm IgG1
B10: CE115HA000/GLS3000 R29A (antibody, IgG1, name in Kabat numbering, V domains shown)
VH: B1 VH
VL: B1 VL with R34A, P95Q
notes: one-arm IgG1
B11: CE115HA000/GLS3000 R29L (antibody, IgG1, name in Kabat numbering, V domains shown)
VH: B1 VH
VL: B1 VL with R34L, P95Q
notes: one-arm IgG1
B12: CE115HA000/GLS3000 R29S (antibody, IgG1, name in Kabat numbering, V domains shown)
VH: B1 VH
VL: B1 VL with R34S, P95Q
notes: one-arm IgG1
B13: CE115HA000/GLS3000 R24Y (antibody, IgG1, name in Kabat numbering, V domains shown)
VH: B1 VH
VL: B1 VL with R24Y, P95Q
notes: one-arm IgG1
B14: CE115HA000/GLS3000 R29V (antibody, IgG1, name in Kabat numbering, V domains shown)
VH: B1 VH
VL: B1 VL with R34V, P95Q
notes: one-arm IgG1
B15: CE115HA000/GLS3000 R24P (antibody, IgG1, name in Kabat numbering, V domains shown)
VH: B1 VH
VL: B1 VL with R24P, P95Q
notes: one-arm IgG1
B16: CE115HA000/GLS3000 R29T (antibody, IgG1, name in Kabat numbering, V domains shown)
VH: B1 VH
VL: B1 VL with R34T, P95Q
notes: one-arm IgG1
B17: CE115HA000/GLS3000 Q90S (antibody, IgG1, name in Kabat numbering, V domains shown)
VH: B1 VH
VL: B1 VL with P95S
notes: one-arm IgG1
B18: CE115HA000/GLS3000 Q93Y (antibody, IgG1, name in Kabat numbering, V domains shown)
VH: B1 VH
VL: B1 VL with P95Q, Q98Y
notes: one-arm IgG1
B19: CE115HA000/GLS3000 R54G (antibody, IgG1, name in Kabat numbering, V domains shown)
VH: B1 VH
VL: B1 VL with R59G, P95Q
notes: one-arm IgG1
B20: CE115HA000/GLS3000 Q93R (antibody, IgG1, name in Kabat numbering, V domains shown)
VH: B1 VH
VL: B1 VL with P95Q, Q98R
notes: one-arm IgG1
B21: CE115HA000/GLS3000 R24S (antibody, IgG1, name in Kabat numbering, V domains shown)
VH: B1 VH
VL: B1 VL with R24S, P95Q
notes: one-arm IgG1
B22: CE115HA000/GLS3000 Q90Y (antibody, IgG1, name in Kabat numbering, V domains shown)
VH: B1 VH
VL: B1 VL with P95Y
notes: one-arm IgG1
B23: CE115HA000/GLS3000 R54D (antibody, IgG1, name in Kabat numbering, V domains shown)
VH: B1 VH
VL: B1 VL with R59D, P95Q
notes: one-arm IgG1
B24: CE115HA000/GLS3000 R24D (antibody, IgG1, name in Kabat numbering, V domains shown)
VH: B1 VH
VL: B1 VL with R24D, P95Q
notes: one-arm IgG1
B25: CE115HA000/GLS3000 S25E (antibody, IgG1, name in Kabat numbering, V domains shown)
VH: B1 VH
VL: B1 VL with S25E, P95Q
notes: one-arm IgG1
B26: CE115HA000/GLS3000 R24Q (antibody, IgG1, name in Kabat numbering, V domains shown)
VH: B1 VH
VL: B1 VL with R24Q, P95Q
notes: one-arm IgG1
B27: CE115HA000/GLS3000 Q93E (antibody, IgG1, name in Kabat numbering, V domains shown)
VH: B1 VH
VL: B1 VL with P95Q, Q98E
notes: one-arm IgG1
B28: CE115HA000/GLS3000 R54S (antibody, IgG1, name in Kabat numbering, V domains shown)
VH: B1 VH
VL: B1 VL with R59S, P95Q
notes: one-arm IgG1
B29: CE115HA000/GLS3000 R54P (antibody, IgG1, name in Kabat numbering, V domains shown)
VH: B1 VH
VL: B1 VL with R59P, P95Q
notes: one-arm IgG1
B30: CE115HA000/GLS3000 R54A (antibody, IgG1, name in Kabat numbering, V domains shown)
VH: B1 VH
VL: B1 VL with R59A, P95Q
notes: one-arm IgG1
B31: CE115HA000/GLS3000 R54W (antibody, IgG1, name in Kabat numbering, V domains shown)
VH: B1 VH
VL: B1 VL with R59W, P95Q
notes: one-arm IgG1
B32: CE115HA000/GLS3000 R29I (antibody, IgG1, name in Kabat numbering, V domains shown)
VH: B1 VH
VL: B1 VL with R34I, P95Q
notes: one-arm IgG1
B33: CE115HA000/GLS3000 R29P (antibody, IgG1, name in Kabat numbering, V domains shown)
VH: B1 VH
VL: B1 VL with R34P, P95Q
notes: one-arm IgG1
B34: CE115HA000/GLS3000 S25I (antibody, IgG1, name in Kabat numbering, V domains shown)
VH: B1 VH
VL: B1 VL with S25I, P95Q
notes: one-arm IgG1
B35: CE115HA000/GLS3000 S25A (antibody, IgG1, name in Kabat numbering, V domains shown)
VH: B1 VH
VL: B1 VL with S25A, P95Q
notes: one-arm IgG1
B36: CE115HA000/GLS3000 R29G (antibody, IgG1, name in Kabat numbering, V domains shown)
VH: B1 VH
VL: B1 VL with R34G, P95Q
notes: one-arm IgG1
B37: CE115HA000/GLS3000 S25P (antibody, IgG1, name in Kabat numbering, V domains shown)
VH: B1 VH
VL: B1 VL with S25P, P95Q
notes: one-arm IgG1
B38: CE115HA000/GLS3000 R54T (antibody, IgG1, name in Kabat numbering, V domains shown)
VH: B1 VH
VL: B1 VL with R59T, P95Q
notes: one-arm IgG1
B39: CE115HA000/GLS3000 Q93S (antibody, IgG1, name in Kabat numbering, V domains shown)
VH: B1 VH
VL: B1 VL with P95Q, Q98S
notes: one-arm IgG1
B40: CE115HA000/GLS3000 R24E (antibody, IgG1, name in Kabat numbering, V domains shown)
VH: B1 VH
VL: B1 VL with R24E, P95Q
notes: one-arm IgG1
B41: CE115HA000/GLS3000 R29D (antibody, IgG1, name in Kabat numbering, V domains shown)
VH: B1 VH
VL: B1 VL with R34D, P95Q
notes: one-arm IgG1
B42: CE115HA000/GLS3000 S25M (antibody, IgG1, name in Kabat numbering, V domains shown)
VH: B1 VH
VL: B1 VL with S25M, P95Q
notes: one-arm IgG1
B43: CE115HA000/GLS3000 R24A (antibody, IgG1, name in Kabat numbering, V domains shown)
VH: B1 VH
VL: B1 VL with R24A, P95Q
notes: one-arm IgG1
B44: CE115HA000/GLS3000 S25T (antibody, IgG1, name in Kabat numbering, V domains shown)
VH: B1 VH
VL: B1 VL with S25T, P95Q
notes: one-arm IgG1
B45: CE115HA000/GLS3000 Q93P (antibody, IgG1, name in Kabat numbering, V domains shown)
VH: B1 VH
VL: B1 VL with P95Q, Q98P
notes: one-arm IgG1
B46: CE115HA000/GLS3000 S25L (antibody, IgG1, name in Kabat numbering, V domains shown)
VH: B1 VH
VL: B1 VL with S25L, P95Q
notes: one-arm IgG1
B47: CE115HA000/GLS3000 R77S (antibody, IgG1, name in Kabat numbering, V domains shown)
VH: B1 VH
VL: B1 VL with R82S, P95Q
notes: one-arm IgG1

Biological target: T1, CD3 epsilon homodimer protein (UniProt P07766 23-126)
T1 construct: also called CD3 (CD3 epsilon)
T1 sequence (P07766 23-126): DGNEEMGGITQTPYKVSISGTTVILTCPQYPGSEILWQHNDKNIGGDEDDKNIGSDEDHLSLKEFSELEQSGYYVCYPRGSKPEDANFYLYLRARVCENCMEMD
Assay: SPR, antibody over immobilised CD3e homodimer;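 further: SPR at 25 °C with CD3 epsilon homodimer amine-coupled to a CM4 sensor chip and antibody flowed over as analyte in HBS-EP+ running buffer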

KD ratio to GLS3000 | Binder
15.9 | B1
1.03 | B2
0.84 | B3
1.08 | B4
1.04 | B5
0.72 | B6
8.86 | B7
0.65 | B8
0.92 | B9
1.15 | B10
0.9 | B11
1.05 | B12
0.94 | B13
2.25 | B14
0.34 | B15
1.02 | B16
0.96 | B17
0.76 | B18
0.88 | B19
0.79 | B20
0.97 | B21
38.3 | B22
1.8 | B23
0.83 | B24

KD ratio to GLS3000 | Binder
8.54 | B25
0.87 | B26
1.05 | B27
0.78 | B28
1.05 | B29
0.85 | B30
0.65 | B31
1.6 | B32
14 | B33
0.67 | B34
0.73 | B35
0.62 | B36
0.79 | B37
0.89 | B38
0.75 | B39
0.89 | B40
1.58 | B41
1.6 | B42
1 | B43
0.75 | B44
39.5 | B45
4.93 | B46
0.94 | B47

— patent US20210388087A1 (Chugai, published 2021)
